Assay results from patent US20170166621A1 (Novartis, published 2017).

Tests used:
FGF21 receptor = assay: cell-based or functional assay
GLP-1 receptor = GLP-1 receptor (UniProt P43220 24-463, limits assumed); assay: cell-based or functional assay

potency in the FGF21 receptor assay (FGF21 receptor) [fold less potent] | cAMP EC50 (fold-Ex-4); GLP-1R only cells (GLP-1 receptor) [fold] | cAMP EC50 (fold-Ex-4); GLP-1R only cells; V253 + V76 co-treatment (GLP-1 receptor) [fold] | cAMP EC50 (fold-Ex-4); GLP-1R/FGFR1c/beta-klotho cells (GLP-1 receptor) [fold] | cAMP EC50 (fold-Ex-4); GLP-1R/FGFR1c/beta-klotho cells; V253 + V76 co-treatment (GLP-1 receptor) [fold] | cAMP EC50 (nM); GLP-1R only cells (GLP-1 receptor) [nM] | cAMP EC50 (nM); GLP-1R only cells; V253 + V76 co-treatment (GLP-1 receptor) [nM] | cAMP EC50 (nM); GLP-1R/FGFR1c/beta-klotho cells (GLP-1 receptor) [nM] | cAMP EC50 (nM); GLP-1R/FGFR1c/beta-klotho cells; V253 + V76 co-treatment (GLP-1 receptor) [nM] | Binder
≥ 1000 | 3.2 | 3.5 | 4.1 | 2.1 | 34 | 38 | 24 | 12 | GLP-1(7-35; A8S)-SGGGGSGGG-FGF21(33-194; R154C-40 kDa branched PEG) (ligand, 40 kDa branched PEG on Cys at R154C (FGF21 numbering)) HSEGTFTSDVSSYLEGQAAKEFIAWLVKGGSGGGGSGGGDSSPLLQFGGQVRQRYLYTDDAQQTEAHLEIREDGTVGGAADQSPESLLQLKALKPGVIQILGVKTSRFLCQRPDGALYGSLHFDPEACSFRELLLEDGYNVYQSEAHGLPLHLPGNKSPHCDPAPRGPARFLPLPGLPPALPEPPGILAPQPPDVGSSDPLS
 | 6 |  | 0.4 |  | 64 |  | 2.4 |  | GLP-1(7-35; A8S)-GSGGGGSGGG-FGF21(33-209; Q56E-D74H-Q82E-R105K-K150R-R154C-40 kDa branched PEG-R159Q-S195A) (ligand, 40 kDa branched PEG on Cys at R154C (FGF21 numbering)) HSEGTFTSDVSSYLEGQAAKEFIAWLVKGGSGGGGSGGGDSSPLLQFGGQVRQRYLYTDDAQETEAHLEIREDGTVGGAAHQSPESLLELKALKPGVIQILGVKTSRFLCQKPDGALYGSLHFDPEACSFRELLLEDGYNVYQSEAHGLPLHLPGNRSPHCDPAPQGPARFLPLPGLPPALPEPPGILAPQPPDVGSSDPLAMVGPSQGRSPSYAS
